Reference: PMC7865074

B1: Whirlin, PDZ domain 3 (N2H construct) (domain or fragment)
chain: LVRVKKSAATLGIAIEGGANTRQPLPRIVTIQRGGSAHNCGQLKVGHVILEVNGLTLRGKEHREAARIIAEAFKTKDRDYIDFL
B2: PDZ domain-containing protein GIPC3, PDZ domain (N2H construct) (domain or fragment)
chain: EVEVTKTEDALGLTITDNGAGYAFIKRIKEGSIINRIEAVCVGDSIEAINDHSIVGCRHYEVAKMLRELPKSQPFTLRLVQ
B3: Ligand of Numb protein X 2, PDZ domain 2 (N2H construct) (domain or fragment)
chain: QVALHKRDSGEQLGIKLVRRTDEPGVFILDLLEGGLAAQDGRLSSNDRVLAINGHDLKYGTPELAAQIIQASGERVNLTIARPG
B4: Membrane-associated guanylate kinase, WW and PDZ domain-containing protein 2, PDZ domain 1 (N2H construct) (domain or fragment)
chain: ESVIGRNPEGQLGFELKGGAENGQFPYLGEVKPGKVAYESGSKLVSEELLLEVNETPVAGLTIRDVLAVIKHCKDPLRLKCVKQG
B5: MPDZ, PDZ domain 6 (N2H construct) (domain or fragment)
chain: TINIAKGNSSLGMTVSANKDGLGMIVRSIIHGGAISRDGRIAIGDCILSINEESTISVTNAQARAMLRRHSLIGPDIKITYV
B6: MAGUK p55 subfamily member 5, PDZ domain (N2H construct) (domain or fragment)
chain: IVRIEKARDIPLGATVRNEMDSVIISRIVKGGAAEKSGLLHEGDEVLEINGIEIRGKDVNEVFDLLSDMHGTLTFVLIPSQ
B7: Partitioning defective 3 homolog B, PDZ domain 1 (N2H construct) (domain or fragment)
chain: TRTVEISGEGGPLGIHVVPFFSSLSGRILGLFIRGIEDNSRSKREGLFHENECIVKINNVDLVDKTFAQAQDVFRQAMKSPSVLLHVLP
B8: Protein piccolo, PDZ domain (N2H construct) (domain or fragment)
chain: RIKITRDSKDHTVSGNGLGIRIVGGKEIPGHSGEIGAYIAKILPGGSAEQTGKLMEGMQVLEWNGIPLTSKTYEEVQSIISQQSGEAEICVRLDL
B9: PDZ and LIM domain protein 1, PDZ domain (N2H construct) (domain or fragment)
chain: TQQIDLQGPGPWGFRLVGGKDFEQPLAISRVTPGSKAALANLCIGDVITAIDGENTSNMTHLEAQNRIKGCTDNLTLTVARSE
B10: PDZ domain-containing protein 2, PDZ domain 2 (N2H construct) (domain or fragment)
chain: KMELLKESDGLGIQVSGGRGSKRSPHAIVVTQVKEGGAAHRDGRLSLGDELLVINGHLLVGLSHEEAVAILRSATGMVQLVVASKE
B11: PDZ domain-containing protein 4, PDZ domain (N2H construct) (domain or fragment)
chain: EVELYKSSHRDKLGLMVCYRTDDEEDLGIYVGEVNPNSIAAKDGRIREGDRIIQINGVDVQNREEAVAILSQEENTNISLLVARP
B12: 26S proteasome non-ATPase regulatory subunit 9, PDZ domain (N2H construct) (domain or fragment)
chain: QARDMAEAHKEAMSRKLGQSESQGPPRAFAKVNSISPGSPASIAGLQVDDEIVEFGSVNTQNFQSLHNIGSVVQHSEGKPLNVTVIRR
B13: Regulating synaptic membrane exocytosis protein 2, PDZ domain (N2H construct) (domain or fragment)
chain: DGSVPRDSGAMLGLKVVGGKMTESGRLCAFITKVKKGSLADTVGHLRPGDEVLEWNGRLLQGATFEEVYNIILESKPEPQVELVVSR
B14: SH3 and multiple ankyrin repeat domains protein 1, PDZ domain (N2H construct) (domain or fragment)
chain: TVLLQKKDSEGFGFVLRGAKAQTPIEEFTPTPAFPALQYLESVDEGGVAWRAGLRMGDFLIEVNGQNVVKVGHRQVVNMIRQGGNTLMVKVVMVT
B15: T-lymphoma invasion and metastasis-inducing protein 2, PDZ domain (N2H construct) (domain or fragment)
chain: DVQLTKTGSVCDFGFAVTAQVDERQHLSRIFISDVLPDGLAYGEGLRKGNEIMTLNGEAVSDLDLKQMEALFSEKSVGLTLIARPPD
B16: Zona Occludens 3; Tight Junction Protein 3, PDZ domain 1 (N2H construct) (domain or fragment)
chain: TATLSKDPRRGFGIAISGGRDRPGGSMVVSDVVPGGPAEGRLQTGDHIVMVNGVSMENATSAFAIQILKTCTKMANITVKRPR
B17: Zona Occludens 3; Tight Junction Protein 3, PDZ domain 3 (N2H construct) (domain or fragment)
chain: DTRVVRFLKGKSIGLRLAGGNDVGIFVSGVQAGSPADGQGIQEGDQILQVNDVPFQNLTREEAVQFL
B18: Rho GTPase-activating protein 21, PDZ domain (N2H construct) (domain or fragment)
chain: TVTLKRTSQGFGFTLRHFIVYPPESAIQFSYKDEENGNRGGKQRNRLEPMDTIFVKQVKEGGPAFEAGLCTGDRIIKVNGESVIGKTYSQVIALIQNSDTTLELSVMPKD
B19: Rho guanine nucleotide exchange factor 12, PDZ domain (N2H construct) (domain or fragment)
chain: CVIIQKDDNGFGLTVSGDNPVFVQSVKEDGAAMRAGVQTGDRIIKVNGTLVTHSNHLEVVKLIKSGSYVALTVQGRPPGS
B20: SH3 and multiple ankyrin repeat domains protein 2, PDZ domain (N2H construct) (domain or fragment)
chain: TVVLQKKDNEGFGFVLRGAKADTPIEEFTPTPAFPALQYLESVDEGGVAWQAGLRTGDFLIEVNNENVVKVGHRQVVNMIRQGGNHLVLKVVTVT
B21: SH3 and multiple ankyrin repeat domains protein 3, PDZ domain (N2H construct) (domain or fragment)
chain: VAVLQKRDHEGFGFVLRGAKAETPIEEFTPTPAFPALQYLESVDVEGVAWRAGLRTGDFLIEVNGVNVVKVGHKQVVALIRQGGNRLVMKVVSVT
B22: Beta-1-syntrophin, PDZ domain (N2H construct) (domain or fragment)
chain: GVKVLKQELGGLGISIKGGKENKMPILISKIFKGLAADQTQALYVGDAILSVNGADLRDATHDEAVQALKRAGKEVLLEVKYMR
B23: Synaptojanin-2-binding protein, PDZ domain (N2H construct) (domain or fragment)
chain: EINLTRGPSGLGFNIVGGTDQQYVSNDSGIYVSRIKENGAAALDGRLQEGDKILSVNGQDLKNLLHQDAVDLFRNAGYAVSLRVQHRL

Biological target: full-length (FL) NS5 protein (wt PBM) of West Nile virus (West Nile virus)
Assay: split reporter (BiFC, NanoBiT); N2H split-NanoLuc in HEK-293T cells; full-length NS5 with 257 single PDZ domains; read-out NLR with NS5 minus NLR with NS5ΔPBM, three experiments; hits > 0.25

Going from B1 to B2, the NLR(NS5) - NLR(NS5ΔPBM) rises from 0.38 to 2.15.

Compared with B3, B4 is higher in NLR(NS5) - NLR(NS5ΔPBM): 0.25 for the first, 0.26 for the second.

First: B5
Second: B6
The NLR(NS5) - NLR(NS5ΔPBM) of the first is higher: 0.38 for the first, 0.26 for the second.

Going from B7 to B8, the NLR(NS5) - NLR(NS5ΔPBM) rises from 0.42 to 0.57.

First: B9
Second: B10
The NLR(NS5) - NLR(NS5ΔPBM) of the first is higher: 27.2 for the first, 0.49 for the second.

First: B11
Second: B12
The NLR(NS5) - NLR(NS5ΔPBM) of the first is lower: 0.85 for the first, 1.21 for the second.

First: B13
Second: B14
The NLR(NS5) - NLR(NS5ΔPBM) of the first is higher: 11.2 for the first, 1.66 for the second.

Compared with B15, B16 is higher in NLR(NS5) - NLR(NS5ΔPBM): 0.65 for the first, 3.05 for the second.

Going from B17 to B18, the NLR(NS5) - NLR(NS5ΔPBM) falls from 0.72 to < 0.25.

B19 and B20 cannot be ordered by NLR(NS5) - NLR(NS5ΔPBM): < 0.25 for the first, < 0.25 for the second.

B21 and B22 cannot be ordered by NLR(NS5) - NLR(NS5ΔPBM): < 0.25 for the first, < 0.25 for the second.

B23 was tested, and the NLR(NS5) - NLR(NS5ΔPBM) was < 0.25.
